Laboratory results as given in patent US20150111814A1.

Target: HIV-1 BaL envelope protein spike (Env) on virions (HIV-1 BaL strain)
Test: cell-based or functional assay

Substance | IC50, p24 leakage from fully infectious HIV-1 BaL (ELISA) [nM]
DAVEI 4 (Dual Acting Virucidal Entry Inhibitor; cyanovirin-N-(Gly4Ser)4-His6-MPER fusion) | 200
DAVEI 8 (Dual Acting Virucidal Entry Inhibitor; cyanovirin-N-(Gly4Ser)8-His6-MPER fusion) | 395
